One protein from PMC4542195 (mBio, 2015) can be followed below.

This data set concerns the molecule itself. The data set is described as follows: SEC. Background: Size exclusion chromatography separates by hydrodynamic size, large species first.

B1: VanTG catalytic (C-terminal cytoplasmic) domain, residues 339 to 712, as used in solution (size excl (domain or fragment)
chain: TADTDRAYLEINLNNLEHNVNTLQKAMSPKCELMAVVKAEAYGHGMYEVTTYFEPIGVFYLAVATIDEGIRLRKYGIFSEILILGYTSPSRAKELCKFELTQTLIDYRYLLLLNKQGYDIKAHIKIDTGMHRLGFSTEDKDKILAAFFLKHIKVAGIFTHLCAADSLEEKEVAFTNKPIGSFYKVLDWPKSSGLNIPKVNIQTSYGLWNIQSWNVIYQSGVALYGVLRSTNDKTKLETDLRACSFLKAKVVLIRKIKQGGSVGYSRAFTATRDSLIAILPIGYADGFPRNLSCGNSYVLIGGRQAPIVGKICMDQLAVDVTDIPNVKTGSIATLIGKDGKEEITAPMVAESAESITNELLSRMEHRLNIIRRA
For B1, the stoichiometry N – broadly, the number of molecules, sites or subunits per partner or assembly – worked out at 2.
